In the supplement of paper PMC10567573:

B1: CCND2 (parent)
chain: YFKCVQKDIQPYMRRMVATWMLEV

Variants of: B1
Experiment: protein stability index of a GFP-peptide fusion (GPS, HEK-293T) (PSI 1-6); higher = more stable
Conditions: c terminus: a fixed tail appended
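Also: lentivirally expressed fusions sorted by FACS into six bins by GFP to DsRed ratio, PSI derived from sequencing read proportions per bin multiplied by bin number.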

Variant | protein stability index
YFKCVQKTIQPYMRRMVATWMLEV [D8T] | 2.37
YFKCVQKCIQPYMRRMVATWMLEV [D8C] | 2.87
YFKCVQKSIQPYMRRMVATWMLEV [D8S] | 3.28
YFKCVQKGIQPYMRRMVATWMLEV [D8G] | 3.98
YFKVVQKDIQPYMRRMVATWMLEV [C4V] | 3.69
YFKSVQKDIQPYMRRMVATWMLEV [C4S] | 3.14
YFKGVQKDIQPYMRRMVATWMLEV [C4G] | 2.21
YFKIVQKDIQPYMRRMVATWMLEV [C4I] | 2.84
YFKEVQKDIQPYMRRMVATWMLEV [C4E] | 1.28
YFKWVQKDIQPYMRRMVATWMLEV [C4W] | 3.23
YFKFVQKDIQPYMRRMVATWMLEV [C4F] | 4.64
YFKQVQKDIQPYMRRMVATWMLEV [C4Q] | 1.44
YFKAVQKDIQPYMRRMVATWMLEV [C4A] | 2.47
YFKTVQKDIQPYMRRMVATWMLEV [C4T] | 1.74
YFSCVQKDIQPYMRRMVATWMLEV [K3S] | 3.75
YFQCVQKDIQPYMRRMVATWMLEV [K3Q] | 2.12
YFECVQKDIQPYMRRMVATWMLEV [K3E] | 3.31
YFYCVQKDIQPYMRRMVATWMLEV [K3Y] | 3.04
YFVCVQKDIQPYMRRMVATWMLEV [K3V] | 3.12
YFNCVQKDIQPYMRRMVATWMLEV [K3N] | 2.9
YFICVQKDIQPYMRRMVATWMLEV [K3I] | 2.78
YFCCVQKDIQPYMRRMVATWMLEV [K3C] | 2.89
YFACVQKDIQPYMRRMVATWMLEV [K3A] | 2.64
YFGCVQKDIQPYMRRMVATWMLEV [K3G] | 1.86

Variant | protein stability index
YFKCQQKDIQPYMRRMVATWMLEV [V5Q] | 2.37
YFKCFQKDIQPYMRRMVATWMLEV [V5F] | 2.7
YFKCDQKDIQPYMRRMVATWMLEV [V5D] | 2.41
YFKCIQKDIQPYMRRMVATWMLEV [V5I] | 2.92
YFKCRQKDIQPYMRRMVATWMLEV [V5R] | 4.02
YFKCHQKDIQPYMRRMVATWMLEV [V5H] | 2.23
YFKCMQKDIQPYMRRMVATWMLEV [V5M] | 2.48
YFKCVCKDIQPYMRRMVATWMLEV [Q6C] | 3.44
YFKCVPKDIQPYMRRMVATWMLEV [Q6P] | 2.49
YFKCVKKDIQPYMRRMVATWMLEV [Q6K] | 3.15
YFKCVVKDIQPYMRRMVATWMLEV [Q6V] | 1.79
YFKCVIKDIQPYMRRMVATWMLEV [Q6I] | 1.91
YFKCVFKDIQPYMRRMVATWMLEV [Q6F] | 2.07
YFKCVSKDIQPYMRRMVATWMLEV [Q6S] | 2.37
YFKCVDKDIQPYMRRMVATWMLEV [Q6D] | 2.65
YFKCVQDDIQPYMRRMVATWMLEV [K7D] | 1.91
YFKCVQTDIQPYMRRMVATWMLEV [K7T] | 3.22
YFKCVQPDIQPYMRRMVATWMLEV [K7P] | 2.48
YFKCVQHDIQPYMRRMVATWMLEV [K7H] | 4.29
YFKCVQVDIQPYMRRMVATWMLEV [K7V] | 3.05
YFKCVQEDIQPYMRRMVATWMLEV [K7E] | 4.8
YFKCVQKDIQPYGRRMVATWMLEV [M13G] | 2.58
YFKCVQKDIQPYYRRMVATWMLEV [M13Y] | 3.66
YFKCVQKDIQPYERRMVATWMLEV [M13E] | 2.88

Variant | protein stability index
YFKCVQKDIQPYTRRMVATWMLEV [M13T] | 2.96
YFKCVQKDIQPYIRRMVATWMLEV [M13I] | 3.3
YFKCVQKDIQPYCRRMVATWMLEV [M13C] | 2.43
YFKCVQKDIQPYMRRMVATKMLEV [W20K] | 1.84
YFKCVQKDIQPYMRRMVATDMLEV [W20D] | 1.63
YFKCVQKDIQPYMRRMVATGMLEV [W20G] | 1.95
YFKCVQKDIQPYMRRMVATRMLEV [W20R] | 2.17
YFKCVQKDIQPYMRRMVATSMLEV [W20S] | 2
YFKCVQKDIQPYMRRMVATIMLEV [W20I] | 2.57
YFKCVQKDIQPYMRRMVATHMLEV [W20H] | 2.88
YFKCVQKDIQPYMRRMVATEMLEV [W20E] | 3.61
WFKCVQKDIQPYMRRMVATWMLEV [Y1W] | 2.82
RFKCVQKDIQPYMRRMVATWMLEV [Y1R] | 1.87
PFKCVQKDIQPYMRRMVATWMLEV [Y1P] | 1.71
DFKCVQKDIQPYMRRMVATWMLEV [Y1D] | 2.58
FFKCVQKDIQPYMRRMVATWMLEV [Y1F] | 2.3
EFKCVQKDIQPYMRRMVATWMLEV [Y1E] | 1.88
MFKCVQKDIQPYMRRMVATWMLEV [Y1M] | 2.11
KFKCVQKDIQPYMRRMVATWMLEV [Y1K] | 3.54
YFKCVQKDIQPLMRRMVATWMLEV [Y12L] | 3.19
YFKCVQKDIQPKMRRMVATWMLEV [Y12K] | 3.07
YFKCVQKDIQPQMRRMVATWMLEV [Y12Q] | 3.19
YFKCVQKDIQPDMRRMVATWMLEV [Y12D] | 3.35
YFKCVQKDIQPPMRRMVATWMLEV [Y12P] | 1.89

Variant | protein stability index
YFKCVQKDIQPNMRRMVATWMLEV [Y12N] | 2.38
YFKCVQKDIQPTMRRMVATWMLEV [Y12T] | 2.66
YFKCVQKDIQPRMRRMVATWMLEV [Y12R] | 4.86
YFKCVQKDIQPYMRRTVATWMLEV [M16T] | 3.51
YFKCVQKDIQPYMRRYVATWMLEV [M16Y] | 2.41
YFKCVQKDIQPYMRRRVATWMLEV [M16R] | 2.65
YFKCVQKDIQPYMRRNVATWMLEV [M16N] | 1.51
YFKCVQKDIQPYMRRSVATWMLEV [M16S] | 2.58
YFKCVQKDIQPYMRRFVATWMLEV [M16F] | 3.28
YFKCVQKDIQPYMRRGVATWMLEV [M16G] | 3.04
YFKCVQKDIQPYMRRMRATWMLEV [V17R] | 3.03
YFKCVQKDIQPYMRRMAATWMLEV [V17A] | 1.55
YFKCVQKDIQPYMRRMSATWMLEV [V17S] | 1.77
YFKCVQKDIQPYMRRMQATWMLEV [V17Q] | 2.63
YFKCVQKDIQPYMRRMPATWMLEV [V17P] | 2.44
YFKCVQKDIQPYMRRMHATWMLEV [V17H] | 3.14
YFKCVQKDIQPYMRRMDATWMLEV [V17D] | 3.18
YFKCVQKDIQPYMRRMVATWMLEH [V24H] | 1.94
YFKCVQKDIQPYMRRMVATWMLER [V24R] | 2.65
YFKCVQKDIQPYMRRMVATWMLEC [V24C] | 1.93
YFKCVQKDIQPYMRRMVATWMLEW [V24W] | 1.91
YFKCVQKDIQPYMRRMVATWMLEK [V24K] | 1.63
